From article PMC8060857

Target: HR-N1, SARS S protein amino acids 882-973 (SARS-CoV (Urbani strain)) (UniProt P59594)
Assay: AUC

Substance: HR-N1, SARS S protein amino acids 882-973 (from UniProt P59594 882-973) (domain or fragment)
- stoichiometry N: 4
